Results from US20250340881A1, “PHARMACEUTICAL COMPOSITION FOR TREATING CANCER COMPRISING FOXM1 MUTANT OR FOXM1 SHRNA” (Industry-University Cooperation Foundation Hanyang …, priority 2022, published 2025).

Legend:
[1] = test system: A549 cells; assay: M2d-inducing factor mRNA in A549 cells after co-culture with THP-1 cells; assay type: cell-based; conditions: co-culture with THP-1 48 hours
Protocol: (§1) In addition, after co-culturing of human monocyte THP-1 cells and cell groups over-expressing FoxM1 point mutations for 48 hours under the conditions where the previous experiments were performed, the mRNA expression levels of M2d-inducing factors IL4, IL6, IL10, and VEGFA in A549 cells expressing FoxM1 S25E were analyzed. […] The amounts of TGFB1 and VEGFA proteins in the medium cultured for 48 h with A549 cells (4×10^4 cells/ml) expressing FoxM1 variants were measured by ELISA.

[2] = test system: A549 cells; assay: IL6, IL1A and CD274 mRNA in A549 cells co-cultured with Jurkat cells; assay type: cell-based; conditions: co-culture with Jurkat 48 h
[3] = test system: A549 cells; assay: ELISA of TGFB1 and VEGFA proteins in A549 culture medium; assay type: cell-based; conditions: medium cultured 48 h
Protocol: as §1

[4] = test system: lung tissues; assay: EMT marker and PD-L1 protein levels in lysed lung tissue of injected mice; assay type: in vivo
Protocol: Next, when the lung tissues were lysed and the protein levels of epithelial-mesenchymal transition markers were measured, the protein levels of the mesenchymal marker N-cadherin increased in the FoxM1 phosphorylated point mutant experimental group, while the levels of E-cadherin decreased. In addition, the expression of PD-L1, which was known to be involved in immune evasion and to enhance the tumorigenic potential of cancer cells, was also examined in each experimental group. […] Moreover, the consistent results were confirmed not only at the protein levels but also at the mRNA levels (FIG. 5E).

[5] = test system: A549 lung cancer cells; assay: Wound healing assay of A549 cells expressing FoxM1 phosphorylated point mutants; assay type: cell-based; conditions: distance in the control group at 72 h set to 0%
Protocol: To observe the effects of phosphorylation point mutations on the motility of cancer cells, a wound healing assay was performed in lung cancer cells A549 expressing FoxM1 wild type (WT), phosphorylated point mutants S25E, S361E, and S715E, and a simultaneous triple-point mutation EEE protein.
Specifically, cells expressing the gene of FoxM1 point mutant by the lentivirus system were seeded into 6-well plates at 1×10^5 cells/well each. 24 hours after cell seeding, scratches were made at regular intervals using a 200 μl-pipette tip. In addition, A549 cells treated with mock as a negative control (Mock) and 5 ng/ml of TGF-β as a positive control were used. […] In addition, the distance in the control group at 72 h was set to 0%, and the relative distance was represented as a bar graph (FIG. 4G).

[6] = test system: A549 lung cancer cells expressing the FoxM1 phosphorylated point mutant protein; assay: Migration assay of A549 cells over-expressing FoxM1 phosphorylated point mutant treated with peptides; assay type: cell-based; conditions: doxycycline 3 μg/ml, 48 hours, no peptide
Protocol: Moreover, to evaluate the effects and efficacy of the three peptides comprising the FoxM1 non-phosphorylation point mutation on the motility of cancer cells, the cell motility was measured by a migration assay (FIG. 8C). Specifically, 5×10^4 cells of A549 lung cancer cells expressing the FoxM1 phosphorylated point mutant protein were seeded into an 8.0 μm, 24-well insert. Culture medium containing 10% serum (FBS) was added to a 24-well plate, and then the insert was placed into the plate. 0.5 ml of RPMI 1640 (10% FBS) containing 3 μg/ml of doxycycline was dispensed into the plate, and each of the three kinds of 5 μM of FoxM1 non-phosphorylated point mutant peptides was simultaneously treated. […] After 5 minutes, the plate was washed with 1×PBS five times, and the stained intensity was measured using the Odyssey infrared imaging system. […]
Specifically, 5×10^4 cells of A549 lung cancer cells expressing the FoxM1 phosphorylated point mutant protein were seeded in an 8.0 μm, 24-well insert, and the inserts were placed in a 24-well plate after medium with 10% fetal bovine serum (FBS) was dispensed on the 24-well plate. […] After 5 minutes, the plate was washed with 1×PBS five times, and the stained intensity was measured using the Odyssey infrared imaging system. […]

[7] = test system: THP-1 monocytes; assay: PD-1 (CD279) mRNA in THP-1 monocytes co-cultured with A549 cells; assay type: cell-based, human; conditions: co-culture
Protocol: To examine the mRNA expression levels of PD-1 and PD-L1, which are involved in solid tumor immune evasion, in THP-1 cells and the cells expressing the FoxM1 phosphorylated point mutant, the expression of PD-1 (CD279) mRNA, an immune evasion factor, was measured by qRT-PCR in THP-1 monocytes co-cultured with A549^S25E cells for 48 h (FIG. 7B). It was observed that the expression of mRNA of PD-L1 (CD274), an immune evasion factor, increased by 2 folds in the A549^S25E cells expressing the phosphorylated point mutant compared to the control group.

Row | Molecule | mRNA expression level of IL4 in A549 cells [1] [folds] | mRNA expression level of IL6 in A549 cells [1] [folds] | mRNA expression level of IL10 in A549 cells [1] [folds] | mRNA expression level of VEGFA in A549 cells [1] [folds] | mRNA expression level, fifth value printed (factor not named) [1] [folds] | expression of IL6, ILIA and CD274 in A549 cells (in words) [2] | mRNA expression of CD274 in A549 cells [2] [folds] | mRNA expression of IL6 in A549 cells [2] [folds] | mRNA expression of ILIA in A549 cells [2] [folds] | amount of TGFB1 protein in medium, compared to Mock [3] [folds] | amount of VEGFA protein in medium, compared to Mock [3] [folds] | expression of PD-L1 in lung tissue [4] | protein level of E-cadherin in lung tissue [4] | protein level of N-cadherin in lung tissue [4] | relative healing distance (motility) at 72 h [5] [%] | stained intensity (migration) of over-expressed group compared to the control group [6] [folds] | expression of PD-1 mRNA (CD279) in THP-1 monocytes [7]
1 | S25E: FoxM1 phosphorylated point mutant of the S25 residue, expressed by lentivirus in A549 cells (protein, listed as Homo sapiens) MKTSPRRPLILKRRRLPLPVQNAPEETSEEEPKRSPAQQESNQAEASKEVAESNSCKFPAGIKIINHPTMPNTQVVAIPNNANIHSIITALTAKGKESGSSGPNKFILISCGGAPTQPPGLRPQTQTSYDAKRTEVTLETLGPKPAARDVNLPRPPGALCEQKRETCDGEAAGCTINNSLSNIQWLRKMSSDGLGSRSIKQEMEEKENCHLEQRQVKVEEPSRPSASWQNSVSERPPYSYMAMIQFAINSTERKRMTLKDIYTWIEDHFPYFKHIAKPGWKNSIRHNLSLHDMFVRETSANGKVSFWTIHPSANRYLTLDQVFKQQQKRPNPELRRNMTIKTELPLGARRKMKPLLPRVSSYLVPIQFPVNQSLVLQPSVKVPLPLAASLMSSELARHSKRVRIAPKVLLAEEGIAPLSSAGPGKEEKLLFGEGFSPLLPVQTIKEEEIQPGEEMPHLARPIKVESPPLEEWPSPAPSFKEESSHSWEDSSQSPTPRPKKSYSGLRSPTRCVSEMLVIQHRERRERSRSRRKQHLLPPCVDEPELLFSEGPSTSRWAAELPFPADSSDPASQLSYSQEVGGPFKTPIKETLPISSTPSKSVLPRTPESWRLTPPAKVGGLDFSPVQTSQGASDPLPDPLGLMDLSTTPLQSAPPLESPQRLLSSEPLDLISVPFGNSSPSDIDVPKPGSPEPQVSGLAANRSLTEGLVLDTMNDSLSKILLDISFPGLDEDPLGPDNINWSQFIPELQ | 1.8 | 1.8 | 2.2 | 2.5 | 2.5 | significantly low expression | 5 | 3.5 | 4.5 | 5 | 4 | elevated | decreased | increased | 43 | 5 | 
2 | S25A: FoxM1 protein with Ser25 substituted with alanine, non-phosphorylated point mutant, expressed by lentivirus in A549 cells (protein, left off: a dimerising Fc or GST, FoxM1 protein with Ser25 substituted with alanine, non-phosphorylated point mutant, expressed by lentivirus in A549 cells) MKTSPRRPLILKRRRLPLPVQNAPAETSEEEPKRSPAQQESNQAEASKEVAESNSCKFPAGIKIINHPTMPNTQVVAIPNNANIHSIITALTAKGKESGSSGPNKFILISCGGAPTQPPGLRPQTQTSYDAKRTEVTLETLGPKPAARDVNLPRPPGALCEQKRETCDGEAAGCTINNSLSNIQWLRKMSSDGLGSRSIKQEMEEKENCHLEQRQVKVEEPSRPSASWQNSVSERPPYSYMAMIQFAINSTERKRMTLKDIYTWIEDHFPYFKHIAKPGWKNSIRHNLSLHDMFVRETSANGKVSFWTIHPSANRYLTLDQVFKQQQKRPNPELRRNMTIKTELPLGARRKMKPLLPRVSSYLVPIQFPVNQSLVLQPSVKVPLPLAASLMSSELARHSKRVRIAPKVLLAEEGIAPLSSAGPGKEEKLLFGEGFSPLLPVQTIKEEEIQPGEEMPHLARPIKVESPPLEEWPSPAPSFKEESSHSWEDSSQSPTPRPKKSYSGLRSPTRCVSEMLVIQHRERRERSRSRRKQHLLPPCVDEPELLFSEGPSTSRWAAELPFPADSSDPASQLSYSQEVGGPFKTPIKETLPISSTPSKSVLPRTPESWRLTPPAKVGGLDFSPVQTSQGASDPLPDPLGLMDLSTTPLQSAPPLESPQRLLSSEPLDLISVPFGNSSPSDIDVPKPGSPEPQVSGLAANRSLTEGLVLDTMNDSLSKILLDISFPGLDEDPLGPDNINWSQFIPELQ |  |  |  |  |  |  |  |  |  |  |  |  |  |  |  |  | highest
